Source: article PMC12357092, “Two stages of substrate discrimination dictate selectivity in the Escherichia coli MetNI-Q ABC transporter system” (The Journal of Biological Chemistry, 2025)

Columns and labels:
[1] = target: T1, E. coli MetNI transporter, E166Q/N295A double mutant, detergent-solubilized (E. coli, UniProt P30750 1-343; P31547 1-217, E166Q | N295A); assay: fluorescence polarisation; 20 nM fluorescein-labelled MetQ held constant, detergent-solubilized E166Q/N295A MetNI 0-10 uM; ATP-bound state mimicked with 5 mM ATP and 10 mM EDTA; no methionine added (unfolded-refolded WT MetQ or native N229A); 57.5 mM Tris pH 7.5, 10 mM TAPS pH 8.5, 150 mM NaCl, 1.5 mM bME, 0.05% DDM; single-site binding model; conditions: both partners purified
T1 construct: MetI, the transmembrane (permease) subunit of the E. coli methionine ABC importer MetNI; also called E166Q/N295A MetNI; source: purified, detergent-solubilized (DDM); copies: 2 + 2
T1 sequence (looked up) 1: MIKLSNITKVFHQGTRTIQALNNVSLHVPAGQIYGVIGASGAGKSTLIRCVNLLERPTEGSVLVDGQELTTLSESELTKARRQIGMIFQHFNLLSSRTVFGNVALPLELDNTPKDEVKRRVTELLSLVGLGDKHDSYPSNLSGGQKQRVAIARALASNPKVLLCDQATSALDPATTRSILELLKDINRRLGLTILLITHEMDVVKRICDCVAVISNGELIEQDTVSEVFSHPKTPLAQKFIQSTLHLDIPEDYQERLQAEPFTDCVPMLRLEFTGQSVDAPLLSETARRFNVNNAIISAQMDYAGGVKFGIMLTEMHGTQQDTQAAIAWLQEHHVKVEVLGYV
T1 sequence (looked up) 2: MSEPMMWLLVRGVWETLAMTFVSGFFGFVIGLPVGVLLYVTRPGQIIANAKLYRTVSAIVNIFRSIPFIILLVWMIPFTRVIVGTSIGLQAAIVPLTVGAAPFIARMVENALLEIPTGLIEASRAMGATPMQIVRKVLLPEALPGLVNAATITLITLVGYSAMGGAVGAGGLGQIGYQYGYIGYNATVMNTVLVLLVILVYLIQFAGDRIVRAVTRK

[2] = target: T2, E. coli MetNI transporter, E166Q/N295A double mutant, detergent-solubilized (E. coli, UniProt P30750 1-343; P31547 1-217, E166Q | N295A); assay: FP; unfolded-refolded N229A MetQ, ATP/EDTA
T2 sequence 1: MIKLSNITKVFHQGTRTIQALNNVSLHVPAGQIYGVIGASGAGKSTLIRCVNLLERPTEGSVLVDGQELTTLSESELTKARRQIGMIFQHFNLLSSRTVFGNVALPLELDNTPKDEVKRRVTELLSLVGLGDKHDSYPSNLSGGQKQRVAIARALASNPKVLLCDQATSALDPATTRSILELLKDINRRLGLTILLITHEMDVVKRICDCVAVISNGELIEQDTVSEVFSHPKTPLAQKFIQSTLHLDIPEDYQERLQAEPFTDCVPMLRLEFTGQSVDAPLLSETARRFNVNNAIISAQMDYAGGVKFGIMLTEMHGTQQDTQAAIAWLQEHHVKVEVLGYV
T2 sequence 2: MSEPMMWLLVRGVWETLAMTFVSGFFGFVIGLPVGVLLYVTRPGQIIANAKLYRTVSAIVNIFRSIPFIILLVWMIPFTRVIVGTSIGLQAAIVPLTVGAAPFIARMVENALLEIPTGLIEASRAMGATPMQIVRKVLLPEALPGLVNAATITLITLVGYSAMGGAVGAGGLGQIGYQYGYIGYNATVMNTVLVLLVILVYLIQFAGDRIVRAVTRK

[3] = target: T3, E. coli MetNI transporter, N295A mutant (E. coli, UniProt P30750 1-343; P31547 1-217, N295A); assay: cell-based or functional assay
T3 sequence (looked up) 1: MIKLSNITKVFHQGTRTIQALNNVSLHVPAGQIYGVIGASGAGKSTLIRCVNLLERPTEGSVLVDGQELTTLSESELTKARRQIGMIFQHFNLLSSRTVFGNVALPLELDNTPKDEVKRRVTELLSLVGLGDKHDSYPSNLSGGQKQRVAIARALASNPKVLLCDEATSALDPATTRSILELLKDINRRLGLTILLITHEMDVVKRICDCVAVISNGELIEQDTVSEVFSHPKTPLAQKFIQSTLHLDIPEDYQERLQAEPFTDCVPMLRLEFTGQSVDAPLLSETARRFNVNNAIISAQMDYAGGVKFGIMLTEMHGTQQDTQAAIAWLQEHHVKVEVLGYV
T3 sequence (looked up) 2: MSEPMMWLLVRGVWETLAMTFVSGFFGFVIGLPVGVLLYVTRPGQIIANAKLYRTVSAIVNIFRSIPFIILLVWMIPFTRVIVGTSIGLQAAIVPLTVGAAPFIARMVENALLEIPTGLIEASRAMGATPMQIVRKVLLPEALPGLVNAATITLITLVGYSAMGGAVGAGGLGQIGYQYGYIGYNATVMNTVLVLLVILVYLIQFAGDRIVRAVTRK

[4] = target: T1, E. coli MetNI transporter, E166Q/N295A …; assay: fluorescence polarisation; as a1 (5 mM ATP and 10 mM EDTA), unfolded-refolded WT MetQ with exogenous 100 uM D-Met; conditions: both partners purified
[5] = target: T1, E. coli MetNI transporter, E166Q/N295A …; assay: fluorescence polarisation; control: native WT MetQ (co-purifies with L-Met, not unfolded-refolded) with detergent-solubilized E166Q/N295A MetNI; conditions: both partners purified
[6] = target: T1, E. coli MetNI transporter, E166Q/N295A …; assay: fluorescence polarisation; as a1 (5 mM ATP and 10 mM EDTA), unfolded-refolded WT MetQ with exogenous 100 uM L-Met; conditions: both partners purified
purified protein = substrate: Nc1ncnc2c1ncn2[C@@H]1O[C@H](COP(=O)(O)OP(=O)(O)OP(=O)(O)O)[C@@H](O)[C@H]1O; assay: purified protein; conditions: 500 nM MetNI in DDM, equimolar MgCl2 and ATP, 37 °C, no MetQ, no Met

B1: E. coli MetQ N229A, secreted (non-lipidated), C-terminal 6x-histidine tag (natural protein, UniProt P28635 23-271, looked up)
chain: CGQDEKDPNHIKVGVIVGAEQQVAEVAQKVAKDKYGLDVELVTFNDYVLPNEALSKGDIDANAFQHKPYLDQQLKDRGYKLVAVGNTFVYPIAGYSKKIKSLDELQDGSQVAVPNDPTNLGRSLLLLQKVGLIKLKDGVGLLPTVLDVVENPKNLKIVELEAPQLPRSLDDAQIALAVINTTYASQIGLTPAKDGIFVEDKESPYVALIVTREDNKDAENVKKFVQAYQSDEVYEAANKVFNGGAVKGW
modifications: fluorescein 5-maleimide on the single native cysteine at position 23 (anisotropy experiments)
notes: secreted non-lipidated form isolated from the periplasmic extract; The protein is unlabelled in the ATPase assays; also called N229A MetQ; native N229A; source: E. coli BL21 (DE3) Gold, periplasmic extract, purified (HisTrap, Superdex 200); not shown: His6, C-terminal, kept
- Kd [1]: 300 nM
- Kd [2]: 113 nM
- kcat of MetQ-stimulated ATPase activity of detergent-solubilized N295A MetNI, 5 mM MgATP, native N229A MetQ 0-50 μM [3]: 4.45 s⁻¹

B2: E. coli MetQ substrate-binding protein, wild type, secreted (non-lipidated), C-terminal 6x-histidine tag (natural protein, UniProt P28635 23-271, looked up)
chain: CGQDEKDPNHIKVGVIVGAEQQVAEVAQKVAKDKYGLDVELVTFNDYVLPNEALSKGDIDANAFQHKPYLDQQLKDRGYKLVAVGNTFVYPIAGYSKKIKSLDELQDGSQVAVPNDPTNLGRSLLLLQKVGLIKLKDGVGLLPTVLDVVENPKNLKIVELEAPQLPRSLDDAQIALAVINTTYASQIGLTPAKDGIFVEDKESPYVNLIVTREDNKDAENVKKFVQAYQSDEVYEAANKVFNGGAVKGW
modifications: fluorescein 5-maleimide on the single native cysteine at position 23 (anisotropy experiments)
notes: secreted non-lipidated form isolated from the periplasmic extract; Cys23 is present; WT(apo), WT(LM) and WT(DM) are the same protein without methionine, with 100 uM L-Met or with 100 uM D-Met; native WT co-purifies with L-Met; The protein is unlabelled in the ATPase assays; also called WT MetQ; WT(apo); source: E. coli BL21 (DE3) Gold, periplasmic extract, purified (HisTrap, Superdex 200); not …
- Kd [4]: 800 nM
- Kd [5]: 8000 ± 2000 nM
- Kd [1]: 400 nM
- kcat of MetQ-stimulated ATPase activity of detergent-solubilized N295A MetNI, 5 mM MgATP, WT(DM) MetQ 0-50 μM with 100 μM D-Met [3]: 1.83 s⁻¹
- kcat of MetQ-stimulated ATPase activity of detergent-solubilized N295A MetNI, 5 mM MgATP, WT(LM) MetQ 0-50 μM with 100 μM L-Met [3]: 1 s⁻¹
- kcat of MetQ-stimulated ATPase activity of detergent-solubilized N295A MetNI, 5 mM MgATP, WT(apo) MetQ 0-50 μM [3]: 4 s⁻¹
- Kd [6]: 5000 nM

B3: MetNI (Escherichia coli K-12) (protein)
chain: MIKLSNITKVFHQGTRTIQALNNVSLHVPAGQIYGVIGASGAGKSTLIRCVNLLERPTEGSVLVDGQELTTLSESELTKARRQIGMIFQHFNLLSSRTVFGNVALPLELDNTPKDEVKRRVTELLSLVGLGDKHDSYPSNLSGGQKQRVAIARALASNPKVLLCDEATSALDPATTRSILELLKDINRRLGLTILLITHEMDVVKRICDCVAVISNGELIEQDTVSEVFSHPKTPLAQKFIQSTLHLDIPEDYQERLQAEPFTDCVPMLRLEFTGQSVDAPLLSETARRFNVNNNIISAQMDYAGGVKFGIMLTEMHGTQQDTQAAIAWLQEHHVKVEVLGYV
- Km (purified protein): 800 ± 100 µM
- kcat (purified protein): 0.4 ± 0.067 s⁻¹

B4: MetNI (Escherichia coli K-12; N295A) (protein)
chain: MIKLSNITKVFHQGTRTIQALNNVSLHVPAGQIYGVIGASGAGKSTLIRCVNLLERPTEGSVLVDGQELTTLSESELTKARRQIGMIFQHFNLLSSRTVFGNVALPLELDNTPKDEVKRRVTELLSLVGLGDKHDSYPSNLSGGQKQRVAIARALASNPKVLLCDEATSALDPATTRSILELLKDINRRLGLTILLITHEMDVVKRICDCVAVISNGELIEQDTVSEVFSHPKTPLAQKFIQSTLHLDIPEDYQERLQAEPFTDCVPMLRLEFTGQSVDAPLLSETARRFNVNNAIISAQMDYAGGVKFGIMLTEMHGTQQDTQAAIAWLQEHHVKVEVLGYV
- Km (purified protein): 812 ± 4 µM
- kcat (purified protein): 0.4 ± 0.067 s⁻¹
